Reference: US20250270298A1

B1: CmeC-ECM-1D6 (VHH)
VHH: EVQLVESGGGLVQAGGSLRLSCAASGGTFSRYMMGWFRQAPGKEREFVASIARSGGTYFADSVKGRLTATRDDAKNTMHLQMNSLKPEDTAVYYCAAGAGGSYPALLDFEYLVWGQGTQVTVSS
B2: CmeC-ECM-1G7 (VHH)
VHH: EVQLVESGGDLVQDGGSLRLSCAASGGDFRNPVTGWYRQAPGKQRELVGLITSDGRTNYGDSVMGRFTISMDTAKNTMYLQMNSLKPEDSAVYYCAASLLYGGLQFSTNIWGQGTQVTVSS
B3: CmeC-ECM-1C11 (VHH)
VHH: EVQLVESGGGLVQPGGSLRLSCAASGFTFSDQPMGWYRQAPGQGREWIAFISSGSGGTTDYKNSVKGRFTISRDNAKNIVYLQMNSLKPDDTARYYCNFRIDNNYWGQGTQVTVSS
B4: CadF-ECF-1D10 (VHH, not shown: small tags and cut ends)
VHH: EVQLVESGGGLVQPGGSLRLSCAASGFTLDDYAVGWFRQAPGKEREWLSGISSRDGSTVYADSVKGRFTISRDNAKNTYYLQMNSLKPEDTAVYYCAAAVGYILTRVKSHYNDWSQGTQVTVSS
B5: CadF-ECF-1F10 (VHH, not shown: small tags and cut ends)
VHH: EVQLVESGGGSVQAGGSLRLSCTASIRAGNRYAMGWFRQAPGKEREFVAGISWSGGNTYHADSVNGRFTISRDNAKNTLYLTMNSLKSEDTAVYYCAASWKPLTFRGDDYTYWGQGTQVTVSS
B6: CfrA-ECA-1G7 (VHH, not shown: small tags and cut ends)
VHH: EVQLVESGGGLVQPGGSLRLSCTASGSSLDYYAIGWFRQAPGKEREGVSCISSRDGRIYWADSVEGRFTISRDNGKNTVYLQMNSLKPEDTAVYYCATSRWSFCPSDWSPVPSPFGSWGQGTQVTVSS
B7: CjaD-ECD-1A7 (VHH, not shown: small tags and cut ends)
VHH: EVQLVESGGGLVQAGGSLRLSCATSGFTPGDYAIGWFRQAPGKAREGVSCLSTRDGTTYYADSVKGRFTISTDNAQNTVYLQMNSLKPEDTAVYYCAGEQISFRAVYYCTEYEPVYWSQGTQVTVSS
B8: CjaD-ECD-1D3 (VHH, not shown: small tags and cut ends)
VHH: EVQLVESGGGLVQTGGSLRLSCATSGFTFEYSAIAWFRQAPGKGREGVSCISNRDGTTVYADSVKGRFTISSDNAKNTVYLQMNSLTPEDTGVYYCAADAGVYTADYCRDSRYDPVSKDAWGKGTLVTVSS
B9: Flagella-ECF-1C4 (VHH)
VHH: EVQLVESGGGLVQAGGSLRVSCAASGRAVHNYALNWFRQAPGKAREFVSAISWTRRTYYANSVRGRFTISRDNNGNMVHLQMSNLKSEDTALYYCAAATTWPRLDGAEYWGQGTQVTVSS
B10: Flagella-ECF-1F4 (VHH)
VHH: EVQLVESGGGLVQPGGSLRLSCEAAGSILRVNSMGWYRQAPGKQRDLVSIITSNNDAKYSDSVRGRFTISRDNAKNTVYLQMSSLKPDDTAVYYCNAYVETAGWIPTTHNLWGQGTQVTVSS
B11: Flagella-ECF-1B6 (VHH)
VHH: EVQLVESGGGLVQSGGSLRLSCAASGRIFSITNMGWYRQAPGEQRELVADMPSGGSTNYADSVKGRFTISRDIAKNTVYLQMNSLKPEDTAVYYCNLKMSQPGWLVTNHNFWGQGTQVTVSS
B12: Flagella-ECF-1G8 (VHH)
VHH: EVQLVESGGGLVEAGGSLTLSCTTSEPTSLLNLMGWWRQGPGKEREFVASSNWSGKLVDYADGVEGRFTVIRNEDENAISLQMNSLTVEDTAIYYCAASRLGLPRSAQANQYWGQGTQVTVSS
B13: Flagella-ECF-1D9 (VHH)
VHH: EVQLVESGGGLVEPGGSLRLSCATSGFAFDNYCMYWVRQAPGKGLEWISGITNSGSFSYYADSVKGRFTISRDNAKNTLFLEMNSLTVDDTAVYYCAIHGHGCTWDSLRTTSGPRYRGQGTQVTVSS

Key:
[1] = target: CmeC (Campylobacter jejuni); test: ELISA on directly coated CmeC (200 ng/well), serial dilution of purified VHH, anti-FLAG + anti-mouse-HRP, OPD, absorption at 490 nm
[2] = target: CadF (Campylobacter jejuni); test: ELISA on directly coated CadF (200 ng/well), serial dilution of purified VHH, rabbit anti-VHH + anti-rabbit-HRP, OPD, absorption at 490 nm
[3] = target: CfrA (Campylobacter jejuni); test: ELISA on directly coated CfrA (200 ng/well), serial dilution of purified VHH, anti-FLAG + anti-mouse-HRP, OPD, absorption at 490 nm
[4] = target: CjaD (Campylobacter jejuni); test: ELISA on directly coated CjaD (200 ng/well), serial dilution of purified VHH, anti-FLAG + anti-mouse-HRP, OPD, absorption at 490 nm
[5] = target: CjaD (Campylobacter jejuni); test: apparent affinity from ELISA dose response, purified VHH on immobilized CjaD, anti-FLAG detection
[6] = target: C. jejuni flagella (Campylobacter jejuni); test: apparent affinity estimated from ELISA dose response on immobilized Cj flagella
[7] = target: C. jejuni flagella (Campylobacter jejuni); test: ELISA dose response, purified VHH on immobilized Cj flagella, rabbit anti-VHH detection

Binder	Kd [6]	Relative Bmax [7]	other results
B1			EC50 (read off the curve) [1]: 0.7 nM
B2			EC50 (read off the curve) [1]: 0.3 nM
B3			EC50 (read off the curve) [1]: 0.4 nM
B4			EC50 (read off the curve) [2]: 0.7 nM
B5			EC50 (read off the curve) [2]: 0.4 nM
B6			EC50 (read off the curve) [3]: 9 nM
B7			EC50 (read off the curve) [4]: 2 nM
B8			Kd [5]: 0.06 nM
B9	4 nM	3	
B10	0.6 nM	2.5	
B11	5 nM	2.5	
B12	7 nM	2.5	
B13	9 nM	3	
